Reference: publication PMC7195466, “A common allosteric mechanism regulates homeostatic inactivation of auxin and gibberellin” (Nature Communications, 2020)

Molecular target: the molecule itself
Test: cell-based or functional assay

B1: Oryza sativa gibberellin 2-oxidase 3 (OsGA2ox3), wild type (enzyme, rice (Oryza sativa), UniProt Q8S0S6 1-327, looked up)
chain: MVVLAGPPAVDHIPLLRSPDPGDVFSGVPVVDLGSPGAARAVVDACERYGFFKVVNHGVATDTMDKAESEAVRFFSQTQPDKDRSGPAYPFGYGSKRIGFNGDMGWLEYLLLALDDASLADACTVPSCAVFRAALNEYISGVRKVAVRVMEAMSEGLGIAQADALSALVTAEGSDQVFRVNHYPPCRALQGLGCSVTGFGEHTDPQLVSVLRSNGTSGLQIALRDGQWVSVPSDRDSFFVNVGDSLQVLTNGRFKSVKHRVVANSLKSRVSFIYFGGPPLAQRIAPLPQLLGEGEQSLYKEFTWDEYKKAAYKSRLGDNRLAQFEKK
Vmax of the tetramer and dimer against the monomers (forms separated by gel filtration): > 3 fold
